Source: the supplement of paper PMC9112550, “Optimization of the antimicrobial peptide Bac7 by deep mutational scanning” (BMC Biology, 2022)

Each sequence was assayed on Escherichia coli TOP10 (assay: shrunken log2 fold change of peptide-encoding DNA abundance (4.5 h post-induction vs induction); higher = less antimicrobial activity (less host growth inhibition)). Conditions: time post-induction: 4.5 h; library: site-saturation at positions 5, 18, 19, 20.
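Also: peptides expressed intracellularly from a pBAD plasmid library in pooled LB shake-flask culture, induced with 0.3% L-arabinose, DNA abundance read by NGS, three biological replicates, DESeq2 with apeglm shrinkage.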

| Sequence | shrunken log2 fold change |
| --- | --- |
| RRIRTRPPRLPRPRPRPMVFPRP | 0.0283 |
| RRIRMRPPRLPRPRPRPATDPRP | 0.843 |
| RRIRYRPPRLPRPRPRPICVPRP | -0.293 |
| RRIRPRPPRLPRPRPRPWHCPRP | -0.0956 |
| RRIRWRPPRLPRPRPRPNNCPRP | 0.00476 |
| RRIRVRPPRLPRPRPRPCEKPRP | -0.0491 |
| RRIRMRPPRLPRPRPRPFGEPRP | 0.0461 |
| RRIRNRPPRLPRPRPRPAQLPRP | -0.207 |
| RRIRFRPPRLPRPRPRPSLCPRP | -0.348 |
| RRIRWRPPRLPRPRPRPCYLPRP | -0.33 |
| RRIRMRPPRLPRPRPRPMRSPRP | 1.67 |
| RRIRRRPPRLPRPRPRPIAHPRP | -0.0355 |
| RRIRTRPPRLPRPRPRPVVSPRP | 0.075 |
| RRIRFRPPRLPRPRPRPHFTPRP | -0.489 |
| RRIRMRPPRLPRPRPRPMWKPRP | -0.00141 |
| RRIRTRPPRLPRPRPRPQFLPRP | -0.352 |
| RRIRQRPPRLPRPRPRPSQDPRP | -0.0378 |
| RRIRGRPPRLPRPRPRPRNKPRP | 0.765 |
| RRIRSRPPRLPRPRPRPVGIPRP | -0.012 |
| RRIRGRPPRLPRPRPRPSVSPRP | 0.166 |
| RRIRHRPPRLPRPRPRPHQLPRP | -0.196 |
| RRIRDRPPRLPRPRPRPVGIPRP | -0.0542 |
| RRIRHRPPRLPRPRPRPEPTPRP | 0.179 |
| RRIRRRPPRLPRPRPRPGVNPRP | -0.271 |
| RRIRYRPPRLPRPRPRPPPWPRP | 0.358 |

| Sequence | shrunken log2 fold change |
| --- | --- |
| RRIRYRPPRLPRPRPRPVTCPRP | -0.0508 |
| RRIRKRPPRLPRPRPRPPHQPRP | 0.61 |
| RRIRYRPPRLPRPRPRPWFEPRP | -0.2 |
| RRIRNRPPRLPRPRPRPMQYPRP | -0.267 |
| RRIRKRPPRLPRPRPRPNMNPRP | 0.394 |
| RRIRMRPPRLPRPRPRPSESPRP | -0.01 |
| RRIRPRPPRLPRPRPRPKRIPRP | -0.155 |
| RRIRARPPRLPRPRPRPWKSPRP | -0.00111 |
| RRIRARPPRLPRPRPRPRDMPRP | 1.52 |
| RRIRWRPPRLPRPRPRPCVFPRP | 0.309 |
| RRIRARPPRLPRPRPRPNIEPRP | 0.0171 |
| RRIRFRPPRLPRPRPRPKTWPRP | 0.157 |
| RRIRHRPPRLPRPRPRPSFSPRP | -0.483 |
| RRIRLRPPRLPRPRPRPEAVPRP | -0.0408 |
| RRIRIRPPRLPRPRPRPRFMPRP | -0.143 |
| RRIRVRPPRLPRPRPRPFIVPRP | -0.285 |
| RRIRWRPPRLPRPRPRPMMIPRP | -0.0137 |
| RRIRYRPPRLPRPRPRPIITPRP | -0.667 |
| RRIRLRPPRLPRPRPRPHAYPRP | -0.392 |
| RRIRLRPPRLPRPRPRPWNRPRP | -0.0226 |
| RRIRSRPPRLPRPRPRPYQDPRP | 0.0107 |
| RRIRKRPPRLPRPRPRPFHMPRP | -0.424 |
| RRIRFRPPRLPRPRPRPNTHPRP | -0.579 |
| RRIRYRPPRLPRPRPRPYLLPRP | -1.28 |
| RRIRFRPPRLPRPRPRPLTHPRP | -0.0881 |

| Sequence | shrunken log2 fold change |
| --- | --- |
| RRIRRRPPRLPRPRPRPGFGPRP | 0.497 |
| RRIRHRPPRLPRPRPRPIWRPRP | 0.139 |
| RRIRDRPPRLPRPRPRPCEQPRP | 0.0856 |
| RRIRVRPPRLPRPRPRPAGSPRP | 0.29 |
| RRIRIRPPRLPRPRPRPQHLPRP | -0.542 |
| RRIRGRPPRLPRPRPRPHAVPRP | 0.657 |
| RRIRSRPPRLPRPRPRPRFFPRP | 0.108 |
| RRIRNRPPRLPRPRPRPAVVPRP | 0.251 |
| RRIRTRPPRLPRPRPRPATGPRP | -0.123 |
| RRIRLRPPRLPRPRPRPRSFPRP | -0.107 |
| RRIRTRPPRLPRPRPRPGVVPRP | 0.0177 |
| RRIRPRPPRLPRPRPRPEHAPRP | 0.197 |
| RRIRHRPPRLPRPRPRPLPFPRP | -0.73 |
| RRIRKRPPRLPRPRPRPRECPRP | -0.0199 |
| RRIRSRPPRLPRPRPRPSFNPRP | -0.644 |
| RRIRIRPPRLPRPRPRPMRAPRP | 1.01 |
| RRIRCRPPRLPRPRPRPGLNPRP | -0.0525 |
| RRIRGRPPRLPRPRPRPHQQPRP | 0.101 |
| RRIRHRPPRLPRPRPRPEFFPRP | 0.0155 |
| RRIRSRPPRLPRPRPRPGIHPRP | 0.115 |
| RRIRMRPPRLPRPRPRPENRPRP | 0.247 |
| RRIRKRPPRLPRPRPRPAVPPRP | 0.275 |
| RRIRCRPPRLPRPRPRPNSNPRP | -0.698 |
| RRIRIRPPRLPRPRPRPWGMPRP | 0.0727 |
| RRIRTRPPRLPRPRPRPCCMPRP | -0.197 |

| Sequence | shrunken log2 fold change |
| --- | --- |
| RRIRPRPPRLPRPRPRPNKKPRP | -0.238 |
| RRIRSRPPRLPRPRPRPVEVPRP | 0.233 |
| RRIRTRPPRLPRPRPRPCEWPRP | 0.013 |
| RRIRKRPPRLPRPRPRPEGIPRP | -0.0332 |
| RRIRIRPPRLPRPRPRPDEWPRP | -0.0975 |
| RRIRKRPPRLPRPRPRPAEEPRP | 0.906 |
| RRIRIRPPRLPRPRPRPDVFPRP | -0.115 |
| RRIRFRPPRLPRPRPRPMRKPRP | 0.222 |
| RRIRMRPPRLPRPRPRPAQWPRP | 0.533 |
| RRIRKRPPRLPRPRPRPVFFPRP | 0.341 |
| RRIRMRPPRLPRPRPRPKQQPRP | 0.48 |
| RRIRWRPPRLPRPRPRPSQWPRP | -0.0949 |
| RRIRWRPPRLPRPRPRPQNWPRP | 0.215 |
| RRIRRRPPRLPRPRPRPQEFPRP | 0.041 |
| RRIRKRPPRLPRPRPRPNEDPRP | -0.00122 |
| RRIRKRPPRLPRPRPRPWGFPRP | 0.0651 |
| RRIRSRPPRLPRPRPRPLDMPRP | 0.0557 |
| RRIRGRPPRLPRPRPRPWPLPRP | 0.797 |
| RRIRARPPRLPRPRPRPQRQPRP | 0.24 |
| RRIRNRPPRLPRPRPRPVRQPRP | 0.0327 |
| RRIRERPPRLPRPRPRPRIPPRP | -0.269 |
| RRIRPRPPRLPRPRPRPHDWPRP | -0.0184 |
| RRIRQRPPRLPRPRPRPFVVPRP | 0.0366 |
| RRIRYRPPRLPRPRPRPCSFPRP | -0.0048 |
| RRIRQRPPRLPRPRPRPWRTPRP | -0.152 |

| Sequence | shrunken log2 fold change |
| --- | --- |
| RRIRMRPPRLPRPRPRPKENPRP | 1.9 |
| RRIRRRPPRLPRPRPRPWMCPRP | 0.214 |
| RRIRTRPPRLPRPRPRPYVKPRP | -0.221 |
| RRIRLRPPRLPRPRPRPDYTPRP | -0.295 |
| RRIRRRPPRLPRPRPRPFHNPRP | 0.00548 |
| RRIRLRPPRLPRPRPRPRIQPRP | 0.239 |
| RRIRHRPPRLPRPRPRPVQNPRP | 0.171 |
| RRIRMRPPRLPRPRPRPFTDPRP | 0.174 |
| RRIRSRPPRLPRPRPRPMRIPRP | 0.0732 |
| RRIRRRPPRLPRPRPRPWTRPRP | -0.0224 |
| RRIRCRPPRLPRPRPRPHFGPRP | -0.219 |
| RRIRERPPRLPRPRPRPDDQPRP | -0.252 |
| RRIRDRPPRLPRPRPRPSEHPRP | 0.12 |
| RRIRHRPPRLPRPRPRPQLSPRP | -0.000101 |
| RRIRGRPPRLPRPRPRPNKFPRP | -0.106 |
| RRIRLRPPRLPRPRPRPPSMPRP | -0.127 |
| RRIRCRPPRLPRPRPRPFFTPRP | -0.0887 |
| RRIRKRPPRLPRPRPRPQLQPRP | 0.199 |
| RRIRKRPPRLPRPRPRPMTSPRP | 0.0716 |
| RRIRWRPPRLPRPRPRPQLAPRP | 0.351 |
| RRIRSRPPRLPRPRPRPCFIPRP | -0.688 |
| RRIRSRPPRLPRPRPRPIAHPRP | -0.0401 |
| RRIRFRPPRLPRPRPRPATLPRP | -0.159 |
| RRIRLRPPRLPRPRPRPMVFPRP | 0.0182 |
| RRIRRRPPRLPRPRPRPMQWPRP | 0.103 |

| Sequence | shrunken log2 fold change |
| --- | --- |
| RRIRHRPPRLPRPRPRPNPKPRP | -0.0127 |
| RRIRKRPPRLPRPRPRPYLFPRP | -0.0275 |
| RRIRGRPPRLPRPRPRPKPDPRP | 1.11 |
| RRIRLRPPRLPRPRPRPSIQPRP | -1.1 |
| RRIRRRPPRLPRPRPRPSIEPRP | -0.232 |
| RRIRYRPPRLPRPRPRPMPKPRP | -0.0102 |
| RRIRVRPPRLPRPRPRPAHNPRP | -0.296 |
| RRIRMRPPRLPRPRPRPCCHPRP | 0.0146 |
| RRIRRRPPRLPRPRPRPNAVPRP | 0.23 |
| RRIRMRPPRLPRPRPRPFCMPRP | -0.33 |
| RRIRQRPPRLPRPRPRPSVYPRP | -0.643 |
| RRIRFRPPRLPRPRPRPEDSPRP | -0.00878 |
| RRIRIRPPRLPRPRPRPHEFPRP | -0.241 |
| RRIRKRPPRLPRPRPRPVYYPRP | -0.094 |
| RRIRCRPPRLPRPRPRPYSNPRP | -0.655 |
| RRIRWRPPRLPRPRPRPLERPRP | -0.148 |
| RRIRVRPPRLPRPRPRPGGVPRP | 0.224 |
| RRIRHRPPRLPRPRPRPTLSPRP | -0.17 |
| RRIRRRPPRLPRPRPRPPQIPRP | 0.908 |
| RRIRFRPPRLPRPRPRPCYIPRP | -0.158 |
| RRIRIRPPRLPRPRPRPIGWPRP | 0.0224 |
| RRIRRRPPRLPRPRPRPRDYPRP | -0.116 |
| RRIRDRPPRLPRPRPRPDNRPRP | 0.147 |
| RRIRKRPPRLPRPRPRPSWPPRP | 0.321 |
| RRIRYRPPRLPRPRPRPRRPPRP | -0.0739 |
